# Data taken from IntAct's records for PubMed 20727515.
# B1: TBC1 domain family member 24 (Homo sapiens), Q9ULP9-2 (parent)
# chain: MDSPGYNCFVDKDKMDAAIQDLGPKELSCTELQELKQLARQGYWAQSHALRGKVYQRLIRDIPCRTVTPDASVYSDIVGKIVGKHSSSCLPLPEFVDNTQVPSYCLNARGEGAVRKILLCLANQFPDISFCPALPAVVALLLHYSIDEAECFEKACRILACNDPGRRLIDQSFLAFESSCMTFGDLVNKYCQAAHKLMVAVSEDVLQVYADWQRWLFGELPLCYFARVFDVFLVEGYKVLYRVALAILKFFHKVRAGQPLESDSVKQDIRTFVRDIAKTVSPEKLLEKAFAIRLFSRKEIQLLQMANEKALKQKGITVKQKRQFVHLAVHAENFRSEIVSVREMRDIWSWVPERFALCQPLLLFSSLQHGYSLARFYFQCEGHEPTLLLIKTTQKEVCGAYLSTDWSERNKFGGKLGFFGTGECFVFRLQPEVQRYEWVVIKHPELTKPPPLMAAEPTAPLSHSASSDPADRLSPFLAARHFNLPSKTESMFMAGGSDCLIVGGGGGQALYIDGDLNRGRTSHCDTFNNQPLCSENFLIAAVEAWGFQDPDTQ
# B2: ADP-ribosylation factor 6 (Homo sapiens), P62330 (parent)
# chain: MGKVLSKIFGNKEMRILMLGLDAAGKTTILYKLKLGQSVTTIPTVGFNVETVTYKNVKFNVWDVGGQDKIRPLWRHYYTGTQGLIFVVDCADRDRIDEARQELHRIINDREMRDAIILIFANKQDLPDAMKPHEIQEKLGLTRIRDRNWYVQPSCATSGDGLYEGLTWLTSNYKS
# partner: B1 chain
# Variants of: B1
# Details: with arf6_human ARF6, P62330
row,effect of a mutation on the interaction,Variant
1,decreasing interaction strength,D147H
2,with no effect,A509V

# Variants of: B2
# Details: with TBC1D24, Q9ULP9-2
row,effect of a mutation on the interaction,Variant
1,with no effect,Q67L
2,increasing interaction strength,T27N
